Data as given in IntAct's records for PubMed 22820947.

B1: ATP-dependent helicase SGS1 (Saccharomyces cerevisiae), P35187 (parent)
chain: MVTKPSHNLRREHKWLKETATLQEDKDFVFQAIQKHIANKRPKTNSPPTTPSKDECGPGTTNFITSIPASGPTNTATKQHEVMQTLSNDTEWLSYTATSNQYADVPMVDIPASTSVVSNPRTPNGSKTHNFNTFRPHMASSLVENDSSRNLGSRNNNKSVIDNSSIGKQLENDIKLEVIRLQGSLIMALKEQSKLLLQKCSIIESTSLSEDAKRLQLSRDIRPQLSNMSIRIDSLEKEIIKAKKDGMSKDQSKGRSQVSSQDDNIISSILPSPLEYNTSSRNSNLTSTTATTVTKALAITGAKQNITNNTGKNSNNDSNNDDLIQVLDDEDDIDCDPPVILKEGAPHSPAFPHLHMTSEEQDELTRRRNMRSREPVNYRIPDRDDPFDYVMGKSLRDDYPDVEREEDELTMEAEDDAHSSYMTTRDEEKEENELLNQSDFDFVVNDDLDPTQDTDYHDNMDVSANIQESSQEGDTRSTITLSQNKNVQVILSSPTAQSVPSNGQNQIGVEHIDLLEDDLEKDAILDDSMSFSFGRQHMPMSHSDLELIDSEKENEDFEEDNNNNGIEYLSDSDLERFDEERENRTQVADIQELDNDLKIITERKLTGDNEHPPPSWSPKIKREKSSVSQKDEEDDFDDDFSLSDIVSKSNLSSKTNGPTYPWSDEVLYRLHEVFKLPGFRPNQLEAVNATLQGKDVFVLMPTGGGKSLCYQLPAVVKSGKTHGTTIVISPLISLMQDQVEHLLNKNIKASMFSSRGTAEQRRQTFNLFINGLLDLVYISPEMISASEQCKRAISRLYADGKLARIVVDEAHCVSNWGHDFRPDYKELKFFKREYPDIPMIALTATASEQVRMDIIHNLELKEPVFLKQSFNRTNLYYEVNKKTKNTIFEICDAVKSRFKNQTGIIYCHSKKSCEQTSAQMQRNGIKCAYYHAGMEPDERLSVQKAWQADEIQVICATVAFGMGIDKPDVRFVYHFTVPRTLEGYYQETGRAGRDGNYSYCITYFSFRDIRTMQTMIQKDKNLDRENKEKHLNKLQQVMAYCDNVTDCRRKLVLSYFNEDFDSKLCHKNCDNCRNSANVINEERDVTEPAKKIVKLVESIQNERVTIIYCQDVFKGSRSSKIVQANHDTLEEHGIGKSMQKSEIERIFFHLITIRVLQEYSIMNNSGFASSYVKVGPNAKKLLTGKMEIKMQFTISAPNSRPSTSSSFQANEDNIPVIAQKSTTIGGNVAANPPRFISAKEHLRSYTYGGSTMGSSHPITLKNTSDLRSTQELNNLRMTYERLRELSLNLGNRMVPPVGNFMPDSILKKMAAILPMNDSAFATLGTVEDKYRRRFKYFKATIADLSKKRSSEDHEKYDTILNDEFVNRAAASSNGIAQSTGTKSKFFGANLNEAKENEQIINQIRQSQLPKNTTSSKSGTRSISKSSKKSANGRRGFRNYRGHYRGRK

Variants of: B1
Conditions: with rad53_yeast RAD53, P22216
Sequence of rad53_yeast RAD53, P22216 (P22216 whole entry): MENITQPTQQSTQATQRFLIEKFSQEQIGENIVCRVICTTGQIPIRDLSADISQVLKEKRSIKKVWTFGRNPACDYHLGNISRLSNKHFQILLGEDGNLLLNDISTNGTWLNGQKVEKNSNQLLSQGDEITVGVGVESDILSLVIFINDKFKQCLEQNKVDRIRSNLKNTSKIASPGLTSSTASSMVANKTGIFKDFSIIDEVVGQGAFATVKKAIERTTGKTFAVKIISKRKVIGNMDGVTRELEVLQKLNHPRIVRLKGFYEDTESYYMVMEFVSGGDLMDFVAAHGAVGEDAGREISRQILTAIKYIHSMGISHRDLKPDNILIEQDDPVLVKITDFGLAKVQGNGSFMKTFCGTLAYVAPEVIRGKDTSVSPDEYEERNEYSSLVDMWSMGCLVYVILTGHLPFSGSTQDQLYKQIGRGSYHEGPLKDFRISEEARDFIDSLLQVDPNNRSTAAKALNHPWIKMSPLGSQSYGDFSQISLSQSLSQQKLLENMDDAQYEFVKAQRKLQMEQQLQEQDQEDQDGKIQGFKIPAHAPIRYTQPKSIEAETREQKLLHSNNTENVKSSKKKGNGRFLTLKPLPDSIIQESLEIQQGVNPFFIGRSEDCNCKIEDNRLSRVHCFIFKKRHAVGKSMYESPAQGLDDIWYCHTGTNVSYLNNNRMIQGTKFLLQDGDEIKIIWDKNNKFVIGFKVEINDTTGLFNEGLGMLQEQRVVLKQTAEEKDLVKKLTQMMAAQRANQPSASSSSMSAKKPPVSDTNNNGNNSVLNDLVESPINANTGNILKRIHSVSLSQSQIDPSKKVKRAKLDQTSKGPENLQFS

Row | Variant | effect of a mutation on the interaction
1 | S470A | decreasing interaction
2 | T451A | decreasing interaction

Results, then the variant that gave them:

Row | effect of a mutation on the interaction | Variant
3 | decreasing interaction | T585A
4 | decreasing interaction | S482A
